T1: recombinant human 9-1-1 ring for crystallization (RAD9 residues 1-270, His-HUS1, RAD1 F64A/M256A/F266A) (human, UniProt Q99638 1-270; O60671 1-282; O60921 2-280, F64A | M256A | F266A)
T1 construct: C-terminal truncated RAD9, human, residues 1-270; RAD1, human, with the triple substitutions F64A/M256A/F266A; HUS1, human; source: E. coli BL21(DE3), co-expressed, purified (HiTrap Heparin, HiTrap Q, HiLoad Superdex200); copies: + +
T1 sequence 1: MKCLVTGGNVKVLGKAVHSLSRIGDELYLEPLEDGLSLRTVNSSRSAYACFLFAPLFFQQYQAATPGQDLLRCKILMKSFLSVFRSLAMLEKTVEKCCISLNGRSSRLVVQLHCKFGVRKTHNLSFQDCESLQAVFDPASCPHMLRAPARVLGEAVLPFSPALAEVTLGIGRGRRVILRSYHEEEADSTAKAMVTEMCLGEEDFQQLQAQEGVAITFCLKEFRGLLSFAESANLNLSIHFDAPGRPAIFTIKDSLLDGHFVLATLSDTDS
T1 sequence 2: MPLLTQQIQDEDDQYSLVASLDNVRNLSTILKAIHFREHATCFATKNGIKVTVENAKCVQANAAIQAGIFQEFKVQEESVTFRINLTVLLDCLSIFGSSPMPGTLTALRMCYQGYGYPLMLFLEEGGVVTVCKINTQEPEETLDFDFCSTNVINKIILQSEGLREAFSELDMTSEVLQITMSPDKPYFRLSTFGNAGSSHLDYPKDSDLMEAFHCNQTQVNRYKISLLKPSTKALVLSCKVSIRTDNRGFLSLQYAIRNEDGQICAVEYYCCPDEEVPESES
T1 sequence 3: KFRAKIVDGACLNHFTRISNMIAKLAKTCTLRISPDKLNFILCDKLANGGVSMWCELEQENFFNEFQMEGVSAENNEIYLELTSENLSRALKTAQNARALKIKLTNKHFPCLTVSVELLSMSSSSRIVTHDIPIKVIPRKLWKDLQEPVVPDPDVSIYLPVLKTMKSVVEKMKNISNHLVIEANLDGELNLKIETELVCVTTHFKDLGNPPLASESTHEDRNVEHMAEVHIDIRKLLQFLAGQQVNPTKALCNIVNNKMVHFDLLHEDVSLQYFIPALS

T2: FLAG-tagged 9^ΔC-1-1 (9-1-1 ring), wild type (human, UniProt Q99638 1-272; O60671 1-282; O60921 1-280)
T2 construct: RAD9 with the C-tail truncated (RAD9^ΔC), human, residues 1-272, from pFastBac1-FLAG-RAD9^ΔC; RAD1 subunit of 9-1-1; HUS1 subunit of 9-1-1; also called 9^ΔC-1-1 (W); purified 9^ΔC-1-1; copies: + +
T2 sequence (looked up) 1: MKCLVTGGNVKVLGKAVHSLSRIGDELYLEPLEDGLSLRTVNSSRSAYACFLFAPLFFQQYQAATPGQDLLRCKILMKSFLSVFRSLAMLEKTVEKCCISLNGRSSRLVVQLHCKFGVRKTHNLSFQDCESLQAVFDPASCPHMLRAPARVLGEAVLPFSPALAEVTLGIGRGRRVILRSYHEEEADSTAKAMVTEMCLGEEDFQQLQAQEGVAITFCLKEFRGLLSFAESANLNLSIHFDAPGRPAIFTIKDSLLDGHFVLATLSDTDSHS
T2 sequence (looked up) 2: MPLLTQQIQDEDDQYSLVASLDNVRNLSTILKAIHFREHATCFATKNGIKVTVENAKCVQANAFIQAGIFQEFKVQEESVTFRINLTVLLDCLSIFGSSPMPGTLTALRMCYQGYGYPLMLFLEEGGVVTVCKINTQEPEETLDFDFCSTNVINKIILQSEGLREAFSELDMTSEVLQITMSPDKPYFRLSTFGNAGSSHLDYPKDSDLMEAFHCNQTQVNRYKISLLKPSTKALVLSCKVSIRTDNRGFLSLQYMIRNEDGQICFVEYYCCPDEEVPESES
T2 sequence (looked up) 3: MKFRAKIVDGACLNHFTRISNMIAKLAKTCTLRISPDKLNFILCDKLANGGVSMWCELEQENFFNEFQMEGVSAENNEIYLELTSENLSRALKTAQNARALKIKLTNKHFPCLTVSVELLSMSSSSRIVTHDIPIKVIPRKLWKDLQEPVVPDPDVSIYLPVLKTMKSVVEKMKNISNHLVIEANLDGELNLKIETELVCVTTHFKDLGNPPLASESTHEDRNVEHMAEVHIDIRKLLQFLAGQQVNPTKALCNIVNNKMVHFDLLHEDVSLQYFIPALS

B1: human RHINO peptide (88-TSKFPHLTFESP-99) (peptide)
peptide: TSKFPHLTFESP
notes: also called RHINO (residues 88-99); source: synthetic peptide (TORAY Research Center, Inc)
B2: GST-RAD9C15 F361A (peptide, UniProt Q99638 356-370, looked up)
chain: PPPKKARSLFFGSIL
notes: RAD9, human, residues 356-370 of the C-tail, F361A; source: E. coli Rosetta 2(DE3)pLysS, from cell lysate immobilised on Glutathione-Sepharose 4B beads and washed
B3: GST-tagged RAD9 (residues 356-370) (GST-RAD9C15), wild type (peptide, UniProt Q99638 356-370, looked up)
chain: PPPKKFRSLFFGSIL
notes: RAD9, human, residues 356-370 of the C-tail; source: E. coli Rosetta 2(DE3)pLysS, from cell lysate immobilised on Glutathione-Sepharose 4B beads and washed
B4: GST-tagged p21 C-terminal region (residues 87-164) (GST-p21CT), wild type (domain or fragment, human, UniProt P38936 87-164, looked up)
chain: DELGGGRRPGTSPALLQGTAEEDHVDLSLSCTLVPRSGEQAEGSPGGPGDSQGRKRRQTSMTDFYHSKRRLIFSKRKP
notes: p21, C-terminal region carrying the PIP-box, residues 87-164; also called p21 (W); source: E. coli Rosetta 2(DE3)pLysS, from cell lysate immobilised on Glutathione-Sepharose 4B beads and washed
B5: GST-p21CT FY (F150A/Y151A) (domain or fragment, human, UniProt P38936 87-164, looked up)
chain: DELGGGRRPGTSPALLQGTAEEDHVDLSLSCTLVPRSGEQAEGSPGGPGDSQGRKRRQTSMTDAAHSKRRLIFSKRKP
notes: p21, C-terminal region, residues 87-164, F150A/Y151A in the PIP-box; also called p21CT variant with the F150A/Y151A double substitution in the PIP-box; source: E. coli Rosetta 2(DE3)pLysS, from cell lysate immobilised on Glutathione-Sepharose 4B beads and washed
B6: GST-RAD9C15 F365A (peptide, UniProt Q99638 356-370, looked up)
chain: PPPKKFRSLAFGSIL
notes: RAD9, human, residues 356-370 of the C-tail, F365A; source: E. coli Rosetta 2(DE3)pLysS, from cell lysate immobilised on Glutathione-Sepharose 4B beads and washed

Molecular target: T1, recombinant human 9-1-1 ring for …
Experiment: crystal structure; 0.13 mM 9-1-1 ring incubated with about 10-fold molar excess of the RHINO peptide at 277 K overnight; vapor diffusion, 0.2 M potassium iodine, 14% PEG 3350, 293 K; 2.81 Å
Conditions: both partners purified

Question: Does B1 bind?
Answer: binds

Molecular target: T2, FLAG-tagged 9^ΔC-1-1 (9-1-1 ring), wild …
Experiment: pull-down; GST or GST-fusion proteins from E. coli lysate immobilised on Glutathione-Sepharose 4B beads and washed four times; incubated with purified PCNA, FLAG-tagged 9^ΔC-1-1 (W) or its LVF mutant for 2 h at 4 °C in 25 μl of buffer H (25 mM HEPES-NaOH pH 7.8, 150 mM NaCl, 1 mM EDTA, 10% glycerol, 0.01% NP-40); immunoblotting with anti-RAD1 or anti-PCNA antibody
Conditions: both partners purified

Question: Does B2 bind?
Answer: binds

Question: Does B3 bind?
Answer: binds

Question: Does B4 bind?
Answer: binds

Question: Does B5 bind?
Answer: binds

Question: Does B6 bind?
Answer: binds

Reference: article PMC10937111, “Structural basis for intra- and intermolecular interactions on RAD9 subunit of 9-1-1 checkpoint clamp implies functional 9-1-1 regulation by RHINO” (The Journal of Biological Chemistry, 2024)
